We go through three molecules from US20050287136A1 (Amgen, published 2005).

For assay [1], the target named is T1, CTLA-4-IgG1 fusion protein (OM-CTLA4-IgG1, made in-house) (human).
T1 construct: covalent dimer through cysteine 120 of CTLA-4; The marks for signal peptide (underline) and CTLA4 domain are lost in the text; also called CTLA-4-Ig fusion protein; human CTLA4-IgG
The assay is described as follows: BIAcore, immobilised CTLA-4-Ig fusion, 397.8 RU. Background: Surface plasmon resonance follows binding to a sensor surface in real time, without labels.

The target of assay [2] is T1, CTLA-4-IgG1 fusion protein …. As to the kind of experiment: BIAcore, immobilised CTLA-4-Ig fusion, 457.2 RU.
Assay [3] has the same target. As to the kind of experiment: BIAcore, immobilised CTLA-4-Ig fusion, 504.5 RU.
For assay [4] the target is unchanged. As to the kind of experiment: BIAcore, immobilised CTLA-4-Ig fusion, 878.7 RU.
Assay [5] shares this target. As to the kind of experiment: selectivity ELISA, coated CTLA-4/Ig against B7.2/Ig, antibody 1 ug/ml. Background: An ELISA detects its analyte on a solid surface through an enzyme-linked reagent.
For assay [6] the target is unchanged. The assay is described as follows: selectivity ELISA, coated CTLA-4/Ig against CD28/Ig, antibody 1 ug/ml.
The target is the same in assay [7]. As to the kind of experiment: selectivity ELISA, coated CTLA-4/Ig against CD44/Ig, antibody 1 ug/ml.
In assay [8] the target is T2, CTLA-4-Ig(G4) (Repligen, Inc.) (UniProt P16410 37-161, limits assumed). As to the kind of experiment: competition ELISA, antibody with CTLA-4-Ig(G4) 0.3 nM on coated B7.1-Ig(G1).
T2 sequence (P16410 37-161 limits assumed): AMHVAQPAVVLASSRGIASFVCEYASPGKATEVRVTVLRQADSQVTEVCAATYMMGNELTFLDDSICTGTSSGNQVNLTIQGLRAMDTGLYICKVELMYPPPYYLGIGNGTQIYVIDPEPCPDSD
Assay [9] concerns the target T2, CTLA-4-Ig(G4) (Repligen, Inc.). The assay is described as follows: competition ELISA, antibody with CTLA-4-Ig(G4) 0.3 nM on coated B7.2-Ig(G1).
Assay [10] concerns the target T1, CTLA-4-IgG1 fusion protein …. The assay is described as follows: selectivity ELISA, coated CTLA-4/Ig against hIgG.
The target is the same in assay [11]. The assay is described as follows: selectivity ELISA, coated CTLA-4/Ig against B7.2/Ig.
Assay [12] has the same target. The assay is described as follows: selectivity ELISA, coated CTLA-4/Ig against CD28/Ig.
Assay [13] addresses T2, CTLA-4-Ig(G4) (Repligen, Inc.). The assay is described as follows: competition ELISA (separate experiment), antibody with CTLA-4-Ig(G4) 0.3 nM on coated B7.1-Ig(G1).
For assay [14] the target is unchanged. The assay is described as follows: competition ELISA (separate experiment), antibody with CTLA-4-Ig(G4) 0.3 nM on coated B7.2-Ig(G1).

For orientation: Kd means a measure of binding affinity in units of concentration. High values mean lower affinity, low ones higher affinity. What is called koff is a measure of how fast the partners let go of each other. A high value points to fast dissociation. In general, kon refers to a measure of how fast the partners come together. In general, IC50 refers to the concentration that inhibits the measured activity by half. A high value points to weaker potency.

T1 sequence (chain, as listed by the source): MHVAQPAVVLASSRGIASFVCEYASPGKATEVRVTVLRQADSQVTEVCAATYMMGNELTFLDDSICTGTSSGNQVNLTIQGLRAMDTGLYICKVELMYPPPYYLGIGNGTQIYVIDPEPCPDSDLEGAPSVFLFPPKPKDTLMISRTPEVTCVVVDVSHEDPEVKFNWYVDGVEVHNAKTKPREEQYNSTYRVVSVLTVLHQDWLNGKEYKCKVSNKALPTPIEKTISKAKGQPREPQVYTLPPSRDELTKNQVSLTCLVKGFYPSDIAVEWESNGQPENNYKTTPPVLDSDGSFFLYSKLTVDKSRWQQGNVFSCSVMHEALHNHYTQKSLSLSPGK

B1: 3.1.1 (antibody, human IgG2, V domains shown)
VH: QVQLVESGGGVVQPGRSLRLSCAASGFTFSSYGMHWVRQAPGKGLEWVAVIWYDGSNKYYADSVKGRFTISRDNSKNTLYLQMNSLRAEDTAVYYCARGARIITPCMDVWGQGTTVTVSS
VL: DIQMTQSPSSLSASVGDRVTITCRASQSINTYLIWYQQKPGKAPNFLISATSILQSGVPSRFRGSGSGTNFTLTINSLHPEDFATYYCQQSYSTPFTFGPGTKVDIK
modifications: chain 1 pos 1: pyroglutamate from Gln (FIG. 9: NH2-Blocked, pQ), written Q
notes: Fully human IgG2 kappa; VH DP-50, VK 012; also called CT3.1.1
For B1, the Ka was 4.4e+09 M⁻¹ in assay [1], 4.4e+09 M⁻¹ in [2], 5.5e+09 M⁻¹ in [3] and 1.07e+10 M⁻¹ in assay [4]. The equilibrium dissociation constant (Kd) in [1] came to 0.228 nM; in assay [2], 0.227 nM; in [3], 0.182 nM; in assay [4] it was 0.093 nM. In addition, the dissociation rate constant (koff) in [1] was found to be 0.000207 s⁻¹; in [2], 0.000165 s⁻¹; in assay [3] it was 0.000172 s⁻¹; in assay [4] it was 9.6e-05 s⁻¹. The kon was determined as 910000 M⁻¹ s⁻¹ in [1], 730000 M⁻¹ s⁻¹ in [2], 950000 M⁻¹ s⁻¹ in [3] and 1.04e+06 M⁻¹ s⁻¹ in assay [4]. In addition, in assay [5], the “selectivity ratio CTLA4/B7.2” value was > 500 :1. Besides, in [6], the “selectivity ratio CTLA4/CD28” value was > 500 :1. Moreover, the “selectivity ratio CTLA4/CD44” value in assay [7] was > 500 :1. Besides, the concentration for half-maximal inhibition (IC50) in [8] turned out to be 0.63 nM; in assay [9] it was 0.45 nM.

B2: 11.2.1 (antibody, human IgG2, kappa, V domains shown)
VH: QVQLVESGGGVVQPGRSLRLSCAASGFTFSSYGMHWVRQAPGKGLEWVAVIWYDGSNKYYADSVKGRFTISRDNSKNTLYLQMNSLRAEDTAVYYCARDPRGATLYYYYYGMDVWGQGTTVTVSS
VL: DIQMTQSPSSLSASVGDRVTITCRASQSINSYLDWYQQKPGKAPKLLIYAASSLQSGVPSRFSGSGSGTDFTLTISSLQPEDFATYYCQQYYSTPFTFGPGTKVEIKR
notes: also called CT11.2.1
On to B2, for which, in [10], the “selectivity ratio CTLA4/hIgG” value is > 500 :1. The “selectivity ratio CTLA4/B7.2” value in [11] was > 500 :1. Also, the “selectivity ratio CTLA4/CD28” value in assay [12] is > 500 :1. Also, the half-inhibitory concentration (IC50) in [13] was 0.81 nM; in assay [14] it was 0.56 nM.

B3: 4.10.2 (antibody, human IgG2, V domains shown)
VH: QVQLVESGGGVVQPGRSLRLSCVASGFIFSSHGIHWVRQAPGKGLEWVAVIWYDGRNKDYADSVKGRFTISRDNSKNTLYLQMNSLRAEDTAVYYCARVAPLGPLDYWGQGTLVTVSS
VL: EFVLTQSPGTLSLSPGERATLSCRASQSISSNFLAWYQQKPGQAPRLLIYRPSSRATGIPDSFSGSGSGTDFTLTISRLEPEDFALYYCQQYGTSPFTFGPGTKVDIK
modifications: chain 1 pos 1: pyroglutamate from Gln (FIG. 9: NH2-Blocked, pQ), written Q
notes: Fully human IgG2 kappa; VH DP-50, VK A27; also called CT4.10.2
Turning to B3, the Ka worked out at 1.4e+09 M⁻¹ in assay [2], 2.2e+09 M⁻¹ in assay [3] and 3.9e+09 M⁻¹ in [4]. Further, the dissociation constant Kd in [2] was 0.721 nM; in assay [3] it was 0.455 nM; in [4] it was 0.254 nM. Further, the koff in assay [2] stood at 0.000505 s⁻¹; in assay [3] it was 0.00043 s⁻¹; in [4] it was 0.000253 s⁻¹. In addition, the kon stood at 700000 M⁻¹ s⁻¹ in assay [2], 940000 M⁻¹ s⁻¹ in assay [3] and 1e+06 M⁻¹ s⁻¹ in assay [4]. Further, the IC50 amounted to 3.39 nM in assay [8] and 1.5 nM in [9].
